Source: the Immune Epitope Database (IEDB)
pKd: −log10 of the molar value.

Assays:
[1] = target: HLA-A*02:19; test: IEDB peptide-MHC binding, purified MHC/direct/fluorescence; filed as Kd, often an IC50 or EC50 that approximates it; ≥ and ≤ were set here for values at or beyond the usual limits of such assays
[2] = target: HLA-A*29:02; test: as above
[3] = target: HLA-A*02:03; test: as above
[4] = target: HLA-A*23:01; test: as above
[5] = target: HLA-A*02:11; test: as above
[6] = target: HLA-A*03:01; test: as above
[7] = target: HLA-A*68:02; test: as above
[8] = target: HLA-A*02:16; test: as above
[9] = target: HLA-A*02:12; test: as above
[10] = target: HLA-A*26:01; test: IEDB peptide-MHC binding, purified MHC/competitive/fluorescence; filed as Kd, often an IC50 or EC50 that approximates it; ≥ and ≤ were set here for values at or beyond the usual limits of such assays
[11] = target: HLA-A*02:01; test: as above
[12] = target: HLA-B*18:01; test: as above
[13] = target: HLA-A*24:03; test: as above; settings: source organism: Orthohantavirus delgaditoense
[14] = target: HLA-B*15:17; test: as above
[15] = target: HLA-B*51:01; test: as above
[16] = target: HLA-A*69:01; test: as above; settings: source organism: Orthohantavirus delgaditoense
[17] = target: HLA-B*39:01; test: as above
[18] = target: HLA-B*57:01; test: as above
[19] = target: HLA-B*46:01; test: as above
[20] = target: HLA-B*27:03; test: as above
[21] = target: HLA-A*02:19; test: as above; settings: source organism: Campylobacter jejuni subsp. jejuni NCTC 11168 = ATCC 700819
[22] = target: HLA-A*29:02; test: as above; settings: source organism: Campylobacter jejuni subsp. jejuni NCTC 11168 = ATCC 700819
[23] = target: HLA-A*02:03; test: as above
[24] = target: HLA-A*02:11; test: as above
[25] = target: HLA-A*03:01; test: as above; settings: source organism: Campylobacter jejuni subsp. jejuni NCTC 11168 = ATCC 700819
[26] = target: HLA-B*15:01; test: as above; settings: source organism: Campylobacter jejuni subsp. jejuni NCTC 11168 = ATCC 700819
[27] = target: HLA-A*02:12; test: as above; settings: source organism: Campylobacter jejuni subsp. jejuni NCTC 11168 = ATCC 700819
[28] = target: HLA-A*02:06; test: as above; settings: source organism: Human immunodeficiency virus 1
[29] = target: HLA-A*26:01; test: IEDB peptide-MHC binding, purified MHC/direct/fluorescence; filed as Kd, often an IC50 or EC50 that approximates it; ≥ and ≤ were set here for values at or beyond the usual limits of such assays; settings: source organism: Giardia lamblia ATCC 50803
[30] = target: HLA-A*02:01; test: as above; settings: source organism: Giardia lamblia ATCC 50803
[31] = target: HLA-B*18:01; test: as above; settings: source organism: Giardia lamblia ATCC 50803
[32] = target: HLA-A*24:03; test: as above; settings: source organism: Giardia lamblia ATCC 50803
[33] = target: HLA-B*15:17; test: as above; settings: source organism: Giardia lamblia ATCC 50803
[34] = target: HLA-B*51:01; test: as above; settings: source organism: Giardia lamblia ATCC 50803
[35] = target: HLA-A*69:01; test: as above; settings: source organism: Giardia lamblia ATCC 50803
[36] = target: HLA-B*39:01; test: as above; settings: source organism: Giardia lamblia ATCC 50803
[37] = target: HLA-B*57:01; test: as above; settings: source organism: Giardia lamblia ATCC 50803
[38] = target: HLA-B*15:01; test: as above; settings: source organism: Giardia lamblia ATCC 50803
[39] = target: HLA-B*46:01; test: as above; settings: source organism: Giardia lamblia ATCC 50803
[40] = target: HLA-B*27:03; test: as above; settings: source organism: Giardia lamblia ATCC 50803
[41] = source organism: Rio Mearim virus
[42] = source organism: Orthohantavirus delgaditoense
[43] = source organism: Campylobacter jejuni subsp. jejuni NCTC 11168 = ATCC 700819
[44] = source organism: Human immunodeficiency virus 1
[45] = source organism: Giardia lamblia ATCC 50803
[46] = source organism: Toxoplasma gondii

DWMERIEDF
pKd [1, 41]: ≤ 4.70 | pKd [2, 41]: ≤ 4.70 | pKd [3, 41]: ≤ 4.70 | pKd [4, 41]: ≤ 4.70 | pKd [5, 41]: ≤ 4.70 | pKd [6, 41]: ≤ 4.70 | pKd [7, 41]: ≤ 4.70 | pKd [8, 41]: ≤ 4.70 | pKd [9, 41]: ≤ 4.70 | pKd [10, 42]: ≤ 4.70 | pKd [11, 42]: ≤ 4.70 | pKd [12, 42]: ≤ 4.70 | pKd [13]: ≤ 4.70 | pKd [14, 42]: ≤ 4.70 | pKd [15, 42]: ≤ 4.70 | pKd [16]: ≤ 4.70 | pKd [17, 42]: ≤ 4.70 | pKd [18, 42]: ≤ 4.70 | pKd [19, 42]: ≤ 4.70 | pKd [20, 42]: ≤ 4.70

FTFERSKIK
pKd [21]: ≤ 4.70 | pKd [22]: ≤ 4.70 | pKd [10, 43]: ≤ 4.70 | pKd [23, 43]: ≤ 4.70 | pKd [24, 43]: ≤ 4.70 | pKd [25]: 6.70 | pKd [11, 43]: ≤ 4.70 | pKd [12, 43]: ≤ 4.70 | pKd [14, 43]: ≤ 4.70 | pKd [15, 43]: ≤ 4.70 | pKd [17, 43]: ≤ 4.70 | pKd [18, 43]: ≤ 4.70 | pKd [26]: ≤ 4.70 | pKd [19, 43]: ≤ 4.70 | pKd [20, 43]: ≤ 4.70 | pKd [27]: ≤ 4.70

LNTVATLY
pKd [28]: 7.25 | pKd [23, 44]: 6.54 | pKd [11, 44]: 7.25 | pKd [14, 44]: 5.56 | pKd [17, 44]: ≤ 4.70

MHYGYNRAN
pKd [1, 45]: ≤ 4.70 | pKd [2, 45]: ≤ 4.70 | pKd [29]: ≤ 4.70 | pKd [3, 45]: ≤ 4.70 | pKd [4, 45]: ≤ 4.70 | pKd [5, 45]: ≤ 4.70 | pKd [6, 45]: ≤ 4.70 | pKd [30]: ≤ 4.70 | pKd [31]: ≤ 4.70 | pKd [32]: ≤ 4.70 | pKd [33]: ≤ 4.70 | pKd [34]: ≤ 4.70 | pKd [35]: ≤ 4.70 | pKd [36]: ≤ 4.70 | pKd [7, 45]: ≤ 4.70 | pKd [37]: ≤ 4.70 | pKd [38]: ≤ 4.70 | pKd [39]: ≤ 4.70 | pKd [40]: ≤ 4.70 | pKd [8, 45]: ≤ 4.70 | pKd [9, 45]: ≤ 4.70

SVVEENTMA
pKd [24, 46]: 6.74 | pKd [11, 46]: ≤ 4.70
